From patent publication CN115991785A (SHANGHAI MIAOJU BIOTECHNOLOGY CO LTD; UNIV SHANGHAI JIAOTONG, dated 2023)

How the values were obtained:
[1] = biological target: CD34-Fc抗原 (CD34-Fc antigen); assay: SPR (Biacore, CM5 chip, amine coupling, 1:1 binding model)
[2] = biological target: T1, MATN3-Fc抗原 (MATN3-Fc antigen) (human, UniProt O15232 29-486, limits assumed); assay: as above
T1 construct: not shown: Fc part
T1 sequence (looked up): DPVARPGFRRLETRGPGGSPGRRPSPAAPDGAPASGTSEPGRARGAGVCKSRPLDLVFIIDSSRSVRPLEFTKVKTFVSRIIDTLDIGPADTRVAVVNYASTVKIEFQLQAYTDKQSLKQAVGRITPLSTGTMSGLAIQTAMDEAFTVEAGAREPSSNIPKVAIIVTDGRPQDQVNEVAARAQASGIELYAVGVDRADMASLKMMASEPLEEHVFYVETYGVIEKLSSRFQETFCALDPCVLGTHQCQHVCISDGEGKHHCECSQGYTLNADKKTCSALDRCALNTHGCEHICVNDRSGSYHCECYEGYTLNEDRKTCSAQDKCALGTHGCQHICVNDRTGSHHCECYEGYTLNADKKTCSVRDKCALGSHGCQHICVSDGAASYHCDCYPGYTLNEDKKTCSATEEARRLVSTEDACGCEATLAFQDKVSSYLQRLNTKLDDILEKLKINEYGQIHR

Chain of CD34-Fc抗原 (CD34-Fc antigen) (P28906 32-290): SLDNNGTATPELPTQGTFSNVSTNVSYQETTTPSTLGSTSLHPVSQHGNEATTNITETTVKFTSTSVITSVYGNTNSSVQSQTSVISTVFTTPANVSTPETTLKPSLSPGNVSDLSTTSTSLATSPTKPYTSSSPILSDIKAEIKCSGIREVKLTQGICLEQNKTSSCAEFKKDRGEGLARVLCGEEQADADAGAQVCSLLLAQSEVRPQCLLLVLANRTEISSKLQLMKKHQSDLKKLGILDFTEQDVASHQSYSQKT

B1: CD34×MATN3双特异性抗体 (CD34×MATN3 bispecific antibody, IgG1-scFv form) (bispecific antibody)
chain 1: EIQLQQSGPELMKPGASVKISCKASGYSFTSYYMHWVKQSQGKSLEWIGFIDPFNGGITYNQKFKGKATLTVDRSSSTAYMHLRSLTSEDSAVYYCARCYYNYDDEGRAMDYWGQGTSVTVSS
chain 2: DIQMTQSPSSLSASLGERVSLTCRASQDIGSSLNWLQQGPDGTFKRLIYATSSLDSSVPKRFSGSRSGSDYSLTISSLESEDFVDYYCLQYASSPYTFGGGTKLEIKR
chain 3: EVQLVQSGAEVKKPGASVKVSCKASGGTFSSYAISWVRQAPGQGLEWMGGIIPIFGTANYAQKFQGRVTITADKSTSTAYMELSSLRSEDTAVYYCARGQGYWFDPWGQGTLVTVSS
chain 4: DVQLTQSPSSLSASVGDRVTITCQASQDISNYLNWYQQKPGKAPKLLIYDASNLETGVPSRFSGSGSGTDFTFTISSLQPEDIATYYCQQYDNLPLTFGGGTKLEIKR
- Kd [1]: 8.53 nM
- Kd [2]: 0.00895 nM
